{"source": "paper PMC8924211", "about": "(Nature Communications, 2022)", "key": {"[1]": {"target": "SNAP-GAL2R Y271^7.32A (human) (UniProt O43603)", "sequence (O43603 whole entry Y271A)": "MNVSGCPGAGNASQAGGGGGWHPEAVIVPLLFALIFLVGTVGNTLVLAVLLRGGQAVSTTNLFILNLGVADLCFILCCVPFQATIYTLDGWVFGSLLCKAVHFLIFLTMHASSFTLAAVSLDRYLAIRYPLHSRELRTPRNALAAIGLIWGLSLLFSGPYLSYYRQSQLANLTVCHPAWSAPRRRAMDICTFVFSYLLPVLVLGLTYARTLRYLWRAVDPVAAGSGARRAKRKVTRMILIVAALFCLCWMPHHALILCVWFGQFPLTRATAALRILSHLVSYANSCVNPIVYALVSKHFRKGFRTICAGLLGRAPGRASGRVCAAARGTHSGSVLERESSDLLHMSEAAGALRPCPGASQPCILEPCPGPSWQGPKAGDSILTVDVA", "experiment": "AlphaScreen or HTRF; saturation binding: HEK293 cells transfected with SNAP-GAL1R or SNAP-GAL2R (WT or mutants), labelled with SNAP-Lumi4-Tb; increasing concentrations of galanin-A2 with or without 100 uM unlabeled galanin, 1 h at room temperature"}, "[2]": {"target": "SNAP-GAL2R Q82^2.61A (human) (UniProt O43603)", "sequence (O43603 whole entry Q82A)": "as the sequence (O43603 whole entry Y271A) above, with Q82A, A271Y counted along it", "experiment": "AlphaScreen or HTRF; saturation binding: HEK293 cells transfected with SNAP-GAL1R or SNAP-GAL2R (WT or mutants), labelled with SNAP-Lumi4-Tb; increasing concentrations of galanin-A2 with or without 100 uM unlabeled galanin, 1 h at room temperature"}, "[3]": {"target": "SNAP-GAL2R F264^ECL3A (human) (UniProt O43603)", "sequence (O43603 whole entry F264A)": "as the sequence (O43603 whole entry Y271A) above, with F264A, A271Y counted along it", "experiment": "AlphaScreen or HTRF; saturation binding: HEK293 cells transfected with SNAP-GAL1R or SNAP-GAL2R (WT or mutants), labelled with SNAP-Lumi4-Tb; increasing concentrations of galanin-A2 with or without 100 uM unlabeled galanin, 1 h at room temperature"}, "SNAP-GAL2R R184^5.35A": {"target": "T1, SNAP-GAL2R R184^5.35A (human, UniProt O43603 1-387, R184^5.35A, Lumi4-Tb on the SNAP tag)", "T1 construct": "also called R184A; source: HEK293, transfected, on cells; not shown: SNAP tag, N-terminal, kept", "T1 sequence (looked up)": "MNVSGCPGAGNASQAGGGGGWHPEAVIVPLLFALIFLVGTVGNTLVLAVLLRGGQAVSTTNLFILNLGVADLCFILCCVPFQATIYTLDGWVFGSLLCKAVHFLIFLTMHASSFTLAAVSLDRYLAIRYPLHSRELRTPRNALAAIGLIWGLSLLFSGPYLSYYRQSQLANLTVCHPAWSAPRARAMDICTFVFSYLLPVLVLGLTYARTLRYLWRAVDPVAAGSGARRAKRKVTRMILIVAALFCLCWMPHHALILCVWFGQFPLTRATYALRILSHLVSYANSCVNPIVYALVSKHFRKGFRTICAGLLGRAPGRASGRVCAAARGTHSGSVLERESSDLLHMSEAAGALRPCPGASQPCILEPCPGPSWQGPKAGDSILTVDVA", "experiment": "AlphaScreen or HTRF; saturation binding: HEK293 cells transfected with SNAP-tagged receptor (WT or mutant) and labelled with SNAP-Lumi4-Tb, incubated with increasing concentrations of galanin-A2 in the presence or absence of 100 uM unlabeled galanin, 1 h at room temperature; HTRF ratio 665 nm/620 nm", "conditions": "one partner purified"}, "SNAP-GAL2R H252^6.51A": {"target": "T2, SNAP-GAL2R H252^6.51A (human, UniProt O43603 1-387, H252^6.51A, Lumi4-Tb on the SNAP tag)", "T2 construct": "also called H252A; source: HEK293, transfected, on cells; not shown: SNAP tag, N-terminal, kept", "T2 sequence (looked up)": "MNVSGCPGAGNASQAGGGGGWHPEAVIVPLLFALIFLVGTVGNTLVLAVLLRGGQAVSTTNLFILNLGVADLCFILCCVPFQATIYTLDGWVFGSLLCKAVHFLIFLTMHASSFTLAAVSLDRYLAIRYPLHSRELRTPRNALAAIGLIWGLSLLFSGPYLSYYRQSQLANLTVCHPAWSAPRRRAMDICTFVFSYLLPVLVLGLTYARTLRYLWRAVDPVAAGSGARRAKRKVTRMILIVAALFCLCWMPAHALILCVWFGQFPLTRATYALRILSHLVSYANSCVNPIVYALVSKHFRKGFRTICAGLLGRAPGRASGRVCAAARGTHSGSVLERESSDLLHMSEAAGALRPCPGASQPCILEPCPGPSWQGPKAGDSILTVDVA", "experiment": "AlphaScreen or HTRF; saturation binding: HEK293 cells transfected with SNAP-tagged receptor (WT or mutant) and labelled with SNAP-Lumi4-Tb, incubated with increasing concentrations of galanin-A2 in the presence or absence of 100 uM unlabeled galanin, 1 h at room temperature; HTRF ratio 665 nm/620 nm", "conditions": "one partner purified"}, "SNAP-GAL2R A170^ECL2S": {"target": "T3, SNAP-GAL2R A170^ECL2S (human, UniProt O43603 1-387, A170^ECL2S, Lumi4-Tb on the SNAP tag)", "T3 construct": "also called A170S; source: HEK293, transfected, on cells; not shown: SNAP tag, N-terminal, kept", "T3 sequence (looked up)": "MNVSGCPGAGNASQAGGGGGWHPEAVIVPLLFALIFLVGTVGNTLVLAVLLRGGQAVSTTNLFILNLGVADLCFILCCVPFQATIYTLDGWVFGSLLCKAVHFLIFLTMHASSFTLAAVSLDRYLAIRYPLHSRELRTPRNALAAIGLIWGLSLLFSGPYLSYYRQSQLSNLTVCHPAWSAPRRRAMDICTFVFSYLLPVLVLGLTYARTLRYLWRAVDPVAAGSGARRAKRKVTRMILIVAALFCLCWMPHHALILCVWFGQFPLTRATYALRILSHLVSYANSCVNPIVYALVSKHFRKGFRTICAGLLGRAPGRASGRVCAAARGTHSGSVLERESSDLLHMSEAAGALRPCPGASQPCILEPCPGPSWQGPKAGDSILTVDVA", "experiment": "AlphaScreen or HTRF; saturation binding: HEK293 cells transfected with SNAP-tagged receptor (WT or mutant) and labelled with SNAP-Lumi4-Tb, incubated with increasing concentrations of galanin-A2 in the presence or absence of 100 uM unlabeled galanin, 1 h at room temperature; HTRF ratio 665 nm/620 nm", "conditions": "one partner purified"}, "SNAP-GAL2R L169^ECL2A": {"target": "T4, SNAP-GAL2R L169^ECL2A (human, UniProt O43603 1-387, L169^ECL2A, Lumi4-Tb on the SNAP tag)", "T4 construct": "also called L169A; source: HEK293, transfected, on cells; not shown: SNAP tag, N-terminal, kept", "T4 sequence (looked up)": "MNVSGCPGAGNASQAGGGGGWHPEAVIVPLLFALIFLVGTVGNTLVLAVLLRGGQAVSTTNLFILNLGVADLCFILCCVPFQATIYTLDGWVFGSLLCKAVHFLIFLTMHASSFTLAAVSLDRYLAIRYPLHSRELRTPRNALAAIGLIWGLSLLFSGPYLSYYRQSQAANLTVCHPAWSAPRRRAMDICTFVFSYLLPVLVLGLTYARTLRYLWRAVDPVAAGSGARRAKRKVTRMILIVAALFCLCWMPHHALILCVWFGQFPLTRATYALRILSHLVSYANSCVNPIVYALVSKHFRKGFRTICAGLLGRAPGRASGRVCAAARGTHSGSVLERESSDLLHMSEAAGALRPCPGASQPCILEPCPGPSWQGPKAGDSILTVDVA", "experiment": "AlphaScreen or HTRF; saturation binding: HEK293 cells transfected with SNAP-tagged receptor (WT or mutant) and labelled with SNAP-Lumi4-Tb, incubated with increasing concentrations of galanin-A2 in the presence or absence of 100 uM unlabeled galanin, 1 h at room temperature; HTRF ratio 665 nm/620 nm", "conditions": "one partner purified"}}, "data": [{"binder": "GWTLNSAGYLLGPHAVGNHRSFSDKNGLTSC (dye A2 on the additional C-terminal cysteine, numbers count on: the mature protein; additional cysteine at the C-terminal end of the peptide, carries the dye A2; source: synthetic peptide (synthesized by Vazyme, China))", "values": [{"measurement": "Kd", "setting": "[1]", "result": "> 500", "unit": "nM"}, {"measurement": "Kd", "setting": "[2]", "result": "> 500", "unit": "nM"}, {"measurement": "Kd", "setting": "[3]", "result": "> 500", "unit": "nM"}, {"measurement": "Kd", "setting": "SNAP-GAL2R R184^5.35A", "result": 286, "unit": "nM"}, {"measurement": "Kd", "setting": "SNAP-GAL2R H252^6.51A", "result": 246, "unit": "nM"}, {"measurement": "Kd", "setting": "SNAP-GAL2R A170^ECL2S", "result": 33.5, "unit": "nM"}, {"measurement": "Kd", "setting": "SNAP-GAL2R L169^ECL2A", "result": 86.2, "unit": "nM"}]}]}
